The source of these data is US5908827, “Protein from urine named component B” (Applied Research Systems ARS Holding N.V., dated 1999).

For orientation: Ki means a measure of affinity in units of concentration, obtained from inhibition or displacement. A higher Ki goes with lower affinity.

This assay has as its target TGF-alpha receptor obtained from A 431 cell membranes (Homo sapiens (Human), UniProt P00533). In words: displacement of I^125-TGF-alpha from its receptor on A 431 cell membranes (radioligand competition).

B1: Component B (other)
chain: LKCYTCKEPMTSASCRTITRCKPEDTACMTTLVTVEAEYPFNQSPVVTRSCSSSCVATDPDSIGAAHLIFCCFRDLCNSEL
modifications: SO4 group bound to Tyr (39); five disulfide bridges (urinary material)
In the case of B1, the Ki came to 0.077 nM.
